# From patent publication US20250019437A1
# Positions count from the first letter of the chain named.
# T1: human TREM2 (triggering receptor expressed on myeloid cells 2) (human) (UniProt Q9NZC2)
# T1 sequence (looked up): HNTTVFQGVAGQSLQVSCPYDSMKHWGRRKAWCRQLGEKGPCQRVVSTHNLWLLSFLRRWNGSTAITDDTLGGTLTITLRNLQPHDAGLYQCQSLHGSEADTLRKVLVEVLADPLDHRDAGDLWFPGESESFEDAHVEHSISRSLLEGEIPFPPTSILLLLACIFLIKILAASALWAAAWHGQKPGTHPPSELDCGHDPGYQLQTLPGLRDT
# B1: 6E7 antibody affinity modulation variant V74 (antibody, V domains shown)
# VH: EVQLVQSGAEVKKPGESLKISCKGSGYSFASYWIAWVRQMPGKGLEWMGIIYPGDSDVRYSPSFQGQVTISADKSISTAYLQWSSLKASDTAMYFCARGRTFYYDSSDYFDYWGQGTLVTVSS
# VL: DIQMTQSPSSVSASVGDRVTITCRASQGISSWLAWYQQKPGKAPKLLIYAASSLQLGVPSRFSGSGSGTDFTLTISSLQPEDFATYFCQQADSFPRTFGQGTKLEIK
# B2: 6E7 antibody affinity modulation variant V89 (antibody, V domains shown)
# VH: B1 VH with A30T, V58T, G99Q
# VL: B1 VL with L56N, F94H
# B3: 6E7 antibody affinity modulation variant V3 (antibody, V domains shown)
# VH: B1 VH with V58T, G66D
# VL: B1 VL with L54R, L56N, S93R
# B4: 6E7 antibody affinity modulation variant V27 (antibody, V domains shown)
# VH: B1 VH with A30T, V58T, S61A, A97V, G99S
# VL: B1 VL with L56R
# B5: 6E7 antibody affinity modulation variant V88 (antibody, V domains shown)
# VH: B1 VH with A30G, V58T, G99Q
# VL: B1 VL with S53R, L56R, F94S
# B6: 6E7 antibody affinity modulation variant V75 (antibody, V domains shown)
# VH: B1 VH with A30T, V58T
# VL: B1 VL with L56A, F94Y
# B7: 6E7 antibody affinity modulation variant V13 (antibody, V domains shown)
# VH: B1 VH with A30G, V58T, P62A
# VL: B1 VL with L56G, F94M
# B8: 6E7 antibody affinity modulation variant V17 (antibody, V domains shown)
# VH: B1 VH with A30G, V58T, G99S
# VL: B1 VL with L54R, L56N, F94S
# B9: 6E7 antibody affinity modulation variant V24 (antibody, V domains shown)
# VH: B1 VH with A30T, G99S
# VL: B1 VL with L56K, R96H
# B10: 6E7 antibody affinity modulation variant V28 (antibody, V domains shown)
# VH: B1 VH with A30Q, I50T, V58T, G99Q, Y103F
# VL: B1 VL with L56S, F94L
# B11: 6E7 antibody affinity modulation variant V77 (antibody, V domains shown)
# VH: B1 VH with A30T, V58T, G99Q
# VL: B1 VL with L54R, L56N
# B12: 6E7 antibody affinity modulation variant V25 (antibody, V domains shown)
# VH: B1 VH with A30G, I50L, V58T, G99S
# VL: B1 VL with Q55A, L56N, F94M
# B13: 6E7 antibody affinity modulation variant V4 (antibody, V domains shown)
# VH: B1 VH with A30G, V58T, Y60V, G99S
# VL: B1 VL with S53R, L56N, F94Y
# B14: 6E7 antibody affinity modulation variant V15 (antibody, V domains shown)
# VH: B1 VH with I50T, V58T, G99S
# VL: B1 VL with S53W, L56N, F94Y
# B15: 6E7 antibody affinity modulation variant V5 (antibody, V domains shown)
# VH: B1 VH with A30T, I50T, V58T, G99Q
# VL: B1 VL with L56N, F94H
# B16: 6E7 antibody affinity modulation variant V26 (antibody, V domains shown)
# VH: B1 VH with A30T, A35G, I50T, V58T, G99Q, F102M, Y112A
# VL: B1 VL with L56R, F94Y
# B17: 6E7 antibody affinity modulation variant V76 (antibody, V domains shown)
# VH: B1 VH with A30G, V58T, S63E, G99Q, F110S
# VL: B1 VL with L56K, T69R
# B18: 6E7 antibody affinity modulation variant V14 (antibody, V domains shown)
# VH: B1 VH with A30G, S56Q, V58T
# VL: B1 VL with S53R, L56N
# B19: 6E7 antibody affinity modulation variant V16 (antibody, V domains shown)
# VH: B1 VH with F29M, A30T, S56G, V58T, G99S
# VL: B1 VL with S53N, L56N
# B20: 6E7 antibody affinity modulation variant V29 (antibody, V domains shown)
# VH: B1 VH with A30K, V58T, G99Q
# VL: B1 VL with L56N
# B21: 6E7 antibody affinity modulation variant V84 (antibody, V domains shown)
# VH: B1 VH with S28G, A30T, V58T, G99Q, F110S
# VL: B1 VL with A50G, L56N
# B22: 6E7 antibody affinity modulation variant V87 (antibody, V domains shown)
# VH: B1 VH with A30R, S63D, G99S
# VL: B1 VL with L56W
# B23: 6E7 antibody affinity modulation variant V86 (antibody, V domains shown)
# VH: B1 VH with A30G, I34L, V58T, Q65E, G99S
# VL: B1 VL with L54R, L56N
# B24: 6E7 antibody affinity modulation variant V85 (antibody, V domains shown)
# VH: B1 VH with A30R, I50T, V58T, G99S
# VL: B1 VL with L54R, L56N
# Biological target: T1, human TREM2 (triggering receptor expressed on myeloid cells 2) (human)
# Assay: 2nd screen, 10 nM Ab
row,Binding Signal (fold over 6E7 parental antibody) [fold],Binder
1,4.01,B1
2,1.46,B2
3,2.24,B3
4,5.69,B4
5,5.3,B5
6,4.52,B6
7,1.35,B7
8,5.51,B8
9,2.9,B9
10,3.61,B10
11,1.38,B11
12,4.7,B12
13,5.51,B13
14,4.78,B14
15,2.84,B15
16,3.47,B16
17,4.93,B17
18,4.64,B18
19,4.04,B19
20,1.67,B20
21,1.62,B21
22,3.93,B22
23,5.02,B23
24,5.37,B24

# Biological target: T1, human TREM2 (triggering receptor expressed on myeloid cells 2) (human)
# Assay: 2nd screen, 2 nM Ab
row,Binding Signal (fold over 6E7 parental antibody) [fold],Binder
1,2.54,B1
2,0.94,B2
3,1.95,B3
4,5.67,B4
5,5.57,B5
6,3.74,B6
7,1.15,B7
8,4.22,B8
9,1.42,B9
10,2.63,B10
11,0.83,B11
12,3.15,B12
13,5.88,B13
14,4.72,B14
15,1.25,B15
16,2.83,B16
17,4.34,B17
18,2.57,B18
19,3.57,B19
20,0.84,B20
21,1.45,B21
22,4.86,B22
23,5.17,B23
24,5.41,B24

# Biological target: T1, human TREM2 (triggering receptor expressed on myeloid cells 2) (human)
# Assay: 1st screen, 10 nM Ab
row,Binding Signal (fold over 6E7 parental antibody) [fold],Binder
1,3.94,B1
2,1.33,B2
3,1.97,B3
4,5.5,B4
5,4.92,B5
6,4.64,B6
7,1.31,B7
8,5.37,B8
9,2.64,B9
10,3.08,B10
11,1.43,B11
12,4.23,B12
13,6,B13
14,5.23,B14
15,2.73,B15
16,3.57,B16
17,4.57,B17
18,4.71,B18
19,4.01,B19
20,1.53,B20
21,1.44,B21
22,3.84,B22
23,4.8,B23
24,5.41,B24
